The source of these data is patent US20250092133A1 (Amgen, published 2025).

Sequences and labels used below:
T1: Hu CDH3 Dom1 mu (aa 108-215), human/mouse chimeric CDH3 on CHO cells (chimeric hu/mu)
T1 chain: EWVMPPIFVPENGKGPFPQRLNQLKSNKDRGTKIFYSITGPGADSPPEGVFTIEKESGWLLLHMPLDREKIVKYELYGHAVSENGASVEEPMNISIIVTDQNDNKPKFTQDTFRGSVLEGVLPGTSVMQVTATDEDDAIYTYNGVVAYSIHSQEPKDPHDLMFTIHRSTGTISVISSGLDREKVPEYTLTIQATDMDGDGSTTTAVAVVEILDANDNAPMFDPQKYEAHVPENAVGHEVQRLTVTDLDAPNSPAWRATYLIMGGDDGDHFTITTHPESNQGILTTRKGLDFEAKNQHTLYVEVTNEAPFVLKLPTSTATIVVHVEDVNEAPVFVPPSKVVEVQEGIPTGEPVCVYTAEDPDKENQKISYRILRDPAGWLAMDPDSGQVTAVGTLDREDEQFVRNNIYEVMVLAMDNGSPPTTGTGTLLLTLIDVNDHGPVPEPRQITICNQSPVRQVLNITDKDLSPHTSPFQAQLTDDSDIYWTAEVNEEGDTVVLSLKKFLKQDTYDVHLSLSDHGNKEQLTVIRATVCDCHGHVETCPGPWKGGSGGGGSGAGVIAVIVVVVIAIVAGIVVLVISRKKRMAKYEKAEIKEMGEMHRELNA

T2: Hu CDH3 Dom1B mu (aa 144-179), human/mouse chimeric CDH3 on CHO cells (chimeric hu/mu, UniProt P22223 108-681 (human entry))
T2 chain: T1 chain with E1D, M4V, P5A, F8S, G31D, Y77F, E90D, N104H

B1: CDH3-8 (scFv)
scFv: EVQLVEQSGAEVVKPGASVKITCKASGYAFSSYWMNWVRQRPGKGLEWIGHIYPGDGDTNYNGKFKGKVTLTADKSSNTAYMQLSDLTPEDSAVYFCARDRGSFGAWFAYWGQGTTVTVSSGGGGSGGGGSGGGGSELVMTQTPSSLSASLGDRVTISCRASQDISNYLNWYQQKPDGTVKLLIYYTSRLHSGVPSRFSGSGSGTDYSLTISNLEQEDIATYFCQQGNRNPPTFGGGTKLEIK
notes: Used as crude periplasmic extract and detected through a FLAG tag; also called CDH3-8 scFv
B2: CDH3-9 (scFv)
scFv: EVQLVEESGGDLVKPGGSLKLSCAASGFTFSTYGMSWVRQTPDKRLEWVATISSGGHYSYYPDSVKGRFTISRDNAKNTLYLQMSSLKSEDTAMYYCASYYYGSPFAYWGQGTTVTVSSGGGGSGGGGSGGGGSELQMTQSPSSLSASLGERVSLTCRASQDIGSSLNWLQQKPDGTIKRLIYDTSSLDSGVPKRFSGSRSGSDYSLTISSLESEDFGDYYCVQYGSSPLTFGAGTKLEIK
notes: Used as crude periplasmic extract and detected through a FLAG tag; also called CDH3-9 scFv
B3: CDH3-10 scFv (scFv)
scFv: EVQLVEESGGGLVKPGGSLKLSCAASGFTFSSYAMSWVRQTPDKRLEWVATISSGGHYTYYPDSVKGRFTISRDNAKNTLYLQMSSLKSEDTAMYYCASYYYGIPFGYWGQGTTVTVSSGGGGSGGGGSGGGGSELVMTQSPSSLSASLGEGVSLTCRASQDIGINLIWLRQEPDGTIKRLIYDTSSLDSGVPKRFSGSRSGSDYSLTISSLESEDFVHYYCLQYGSSPLTFGAGTKLEIK

Substitutions are numbered along the chain they refer to.

The target in one assay is T1, Hu CDH3 Dom1 mu (aa 108-215), …. The assay can be described thus: flow cytometry, transfected CHO cells; crude periplasmic scFv extract; anti-FLAG M2 + anti-mouse IgG Fcγ-PE. The method, then:
(§1) Cells transfected with human or murine CDH3, or with the chimeric human/mouse CDH3 molecules (see Example 1) were stained with crude, undiluted periplasmic extract containing scFv binding to human/macaque CDH3. […] As negative control, cells were incubated with PBS/2% FCS instead of the periplasmic extract. The samples were measured by flow cytometry.
In general terms: Flow cytometry measures light scatter and fluorescence of single cells or particles in a stream.
As to B1, the binding result is on record as “no binding”.
Take B2: the binding result was “no binding”.
As to B3, the binding result is listed as “no binding”.

The next assay concerns the target T2, Hu CDH3 Dom1B mu (aa 144-179), …. The description is as above. The method, then:
as §1
B1: the binding result was “no binding”.
On to B2, for which the binding result is on record as “no binding”.
As to B3, the binding result is listed as “no binding”.
